Assay results from the DeepSol protein solubility set.

Test: soluble on expression in E. coli; label from the status in PepcDB or PDB records

| Sequence | soluble on expression in E. coli |
| --- | --- |
| MKIVIIGGFLGGGKTTVLNHLLAESLKESLKPAVIMNEFGKMSVDGALVSEDIPLSELTEGCICCAMKADVSEQLHQLYLKEQPDIVFIECSGIAEPVSVLDACLTPILAPFTTITHMIGVIDASMYKHIKSFPKDIQGLFYEQLAYCSVLFVNKIDSADVETTSKLLKDLEVINPEADIQVGMHGSVTLPISVRQMTATSDNKHESLHKTINHQFVQSPVTCTKAEFIKRLACLPSHIYRLKGFMTFEDTTHTYLIQFTQGQYELTPVAFSKKVPEYLVLIGKGISKEDYQCLEQLEHHHHHH | not soluble |
| KEDYDRRSGKVSEPAPQATEEEDKVEVEPEDNGISSVADMSDGKESIAPKGHAVKPDEGAHSAKKTYKIQILSSTTKLKNGDKRLKGYKVVIEQRGGRFFYLTGAVSSEDEARHLRKKVRKSFPDAYIVVYEAGKRVREIY | not soluble |
| MGTHMYSEQGINNTINISTTSLTNATQLTVIGNNNSVYIGNNCKIVSSNIRLKGNNITLFIADDVEIMGLVCSLHSDCSLQIQAKTTMGNGEITIAEKGKISIGKDCMLAHGYEIRNTDMHPIYSLENGERINHGKDVIIGNHVWLGRNVTILKGVCIPNNVVVGSHTVLYKSFKEPNCVIAGSPAKIVKENIVWGRKMYHSTMYDDPTLNEFYK | soluble |
| MINIAVDNSIKITIETTVNAPIDMVWEAWTEPEHIKSWNHASDDWHTTEAKNDLRVGGRFVSKMEAKDGSFGFDFGGTYNKVRLYEFISYIMDDDRSVEITFKPEKDKTYIVESFEAEKSNPIDLQQKGWQAILDNFKKYVEENKLRGREKLEHHHHHH | soluble |
| MIDIQGIKEALPHRYPMLLVDRVLEVSEDTIVAIKNVTINEPFFNGHFPQYPVMPGVVIMEALAQTAGVLELSKPENKGKLVFYAGMDKVKFKKQVVPGDQLVMTATFVKRRGTIAVVEAKAEVDGKLAASGTLTFAIGN | soluble |
| MAHHHHHHMRVYYSNLVKDKRKCLNFIKVEKKYGGTSLLTKIGQAFNQEHLRNMKTKLDDVKKSSSPFFGTSMEGSNNIFKNFIDIFRKNNIIKDKLKINDSEKKEKEFYMFYVNSLMKYEGIFTYGKFQAFLKDLCDYFNIFSIKYKYKKKMNPQFEKLKKQYEVLNSFLPYELDNDDYKIFTQESKKYIAQAANVDIKFIDELLLFHDTLKTDRTWFYRRKVLKRNIPESFEAREMEAPYDRPVPKTYNYNIKEHSLEYDEFMKKHGRKLKFKQWNSKQHPWFRKNTSGRNRWATRPYTKQFPYLYYSRVPSHMYLSKNKPKISH | not soluble |
| MAHHHHHHMGYGGPRVEFYTANQYSNFAAAIDRENAARVRSILHRRNLPAEQEAQRQREAAFRAYERAQADEVARSHAEEAEALERRRVKDERAQRRLATKTRRRSLTAAEVASRRSRHACLCRLAEPRKYQEAMYGSGMIGGAMPHQSGRDGKLPTVGRNGAVYCAGVDRDRIVPSRPALEGTVPPWKGSYSTHHGPHKLDAQMAKEAAAYYCAHPAPQRSASEQDMRQQTLQSIAAEHSMAAQQDGADVGMADASGAKGRSSVADAVQWHRMGSDNVDDEAGSIFSHGSSNGPIAATGNMHLSTTSTKHSVQLHLSRYGGAMTAPRPWRPSKAASENLTLPELADRLVCIQMSKSVVR | not soluble |
| MKYTKGTYSSSAKGHSSNVNLTVNFDSDKIKNVSINVEGETSQRNKDVVSQLSAQILKKQDDSLDAVTGATETSNAVRRALTDCIKQATGDTENQTKTPLKDGTYTETVPSYSLIAPMTGEVTIKNNKIKNIKITSEKDSQTSPWFHVAEKKFIPRLIESQSLDTDAVTGASVSSGAIKSIAEKAIKDAGGNNDEWHTPVTKKNDTVEKKDFDVIVVGLGGSGILSYCAAAKSGAKVFGLDIAAGIGGNSISTSGPMVVNSKIQSKKYNDGKDNIDPEDLYNTWIDYVKTDKKAAVIKKAIYEDGPALDYYMKNFGFSFDSPAFGMPAGYFPSFVRQDWTKEWAVYTAKDNKWYSAGQPVHIDQYQNALDKAKGMNPVNDYQLELAAKDFIKDDSGKVIGVKAVSYDGTTYNIYGRAVILASGGFVGNNQMMKDVYGHTCHTFGSTTAKGQGIKMGQSIGGNTYALRTLPMIHISQVPNIIRDDSLTPDQKATLSALAITSDAKQIDETGNILGSKDESGIEESKLTVGIAYAPGFHYFNAYTKEDLDKMKNEGVSETTSKVVVIILDQGGKVPAAHTPIKDIDKIVDEAIKHGDAWKGTPSELAKQLNMDEAKLTKSLGDPNKEYYLFEAAGYAYATCGGLDVDEDMNVLRQDGSKIENVFAVGQDSEGVENRNDEAYTPWGGQAQAWTFVSGKIAGENAAKILEHHHHHH | soluble |
| MPELDESASFAELLEAHAGGTRNVRPGDRISAAIVAITDDSVFVATGSKVDGVIDRRELEEADGSLPYAVGDRVDLYVTAVNGQEIRLSKGLSGQGGAAVLEEARDSGVPVEGRVTGTCKGGYNVDVLRKRAFCPGSQIDLHQLEDAESVVGQTFQFLVTRVEQHGRNIVVSRRALLERERDAALATFLEGVKEGDVLEGTVTRLAPFGAFVEIAPGVDGMVLEHHHHHH | not soluble |
| MAHHHHHHMKRVNAIESNREEARERQLSVVRERAKHEAEKMAEELERRSGATLDEIGRTLEAKKRESSALQADRESRIWECEHTLEKIRTRKEDEESASERLRQAMQQPGQGLGLRQSATETKEQQLEMVQLDGARGREAVMRERHSIEAVRRTVRKERCRQRRQWIHQIKEMNAKFPEQVRPLAEERKKKYEQATAKEDAAERALAADVKMIEEYLPKPISLEDIPVNPEETDIIRHQFDEVFTQ | not soluble |
| MPDFAKQGPIVIGGVGGSGTRLIAEIVMDMGFYLGGMLNQSKDLLYFSLLFKRPTWFSKVVTSNEQEIFRGLKILENRLTTQKELTGKDIKFIEKAAQTYRNGDLLAQKIKKNMLFPDPINRQLYRGWGWKEPNAHLFLPYIHRYFPNGKYIHVIRNGLNMAFSKNQQQLFNWGPLFGVTIPNNPMKIPNASLTYWIKANERAVMYGTEQMKGRFLLIQFDQLCVNPTPQLQKLAEFLAVDDLAIDEWSEKIDPAAAASKYKEADLEHHHHHH | not soluble |
| MERVKSHFHNRKKVLLARIKDELKTIPSSNQMSTDEKMEELVRRRICIGEYDEQLARVCLDIEDEEKGRTEQFGNEQIQQPMTNLFTETSHQSLLSQLLTSSASQSKSEIPISMSSPMESASSKDSEPQAVISLPTLGATRAPLLSKLLSDPSTSKENGFLLRKEPVRLARAPSAIRNPNVSNYDRKRRAASPYEKSNRLSVLPSPQNQYLSHLIVDVSSPQELKRLLSVLIDHGFSRFQHIGSSDMVASSIRTGIPRAPRLDTVEYSNYEHEPETDEISRDGTPFWSTPIPPTNKELPVSPVSQLDMTNSIKSRVERVDVEVKLEPCNDEDDEFSEEVDEQTAELEEQLATEAIRTGLALFGKVSPSPKRMKSCGSSGSVCGDVVTAICEICGIGIRLNSGGSKWNFFEHVMMKHSTHKPFKCSQCPYQAVRKVRVKQHGQSQHNSEHEPVNMITPEVRKEWLDTMAKCFPNHQYGKEAKI | not soluble |
| MVEVPSFRSNEHFPQLCDKVTVKWDKKRGRFVEAIEDIPIGTVVCVETGITVNVDPQNCYRCLKITENASFAYCKNCEEFYEPDEIACGEFDELGIFKLAAHLVFSYPFADIASLVQSSDPEPPSCAPKALSTQDIEAIFQLTPFPEIGEAFKAPAIQNAIKRIVESLETDENWGRLDQISRTMTFTKALRIMAERSAKNAHTIYSIEQIESQEDNLPMATGLFPISSIFNHSCTPNISGFFVRNTFIFVSQGVRAREELLDSYGVTYHQHTFEQRTNFLASVSGFICHCESCFKMKSLKVLEKPKKYPETIATNASCFTDITSYTENIPRGSKELENLIIAFARRPDSETYTELIFQFWKKFVENAKFRGITYDPYLVRPYVEMTILAWNKEVGCENEEKMSLLIVTHRLLRNCYVDLHPLSELVVKLVNVVANQNADEINRTLEKLKLRARMLWKYSEQSEDL | not soluble |
| MHDVPPFSGAKLALFYGDHLVVYKRDEKPGIPFPGYWDFPGGGREGLETPAECALRELEEEFSIRLEEPRIEWQRQYPSTSGSAPFAYFLVARLEDREFEAIRFGDEGQYWRLMEVDAYLAHAMAVPYLQSRLGDYLRERRRIGE | soluble |
| MGSPLPFRLTCVWAGEPSMKKAIIFDCEFLCLEGSQRRFWCAAHDPDPVIAQIGAVKLGLEGGFPLLETYKVLISPVDRHGRRYAIDPFFTRLTGITEENIEAEGVPLQDALSSFDSFSEGAQCWSWGKDELNMMAISTYVAGIQPPMPACRFDNAVRLLLAAGMPVEDLAKTPSNSLADYYGVAHPPLQGHDALGDALSVSYALQHLLRSGKLKPEEFTLAA | soluble |
| MGSDKIHHHHHHMAVQFELYKTPMPKEKKNKTRYHARPVSFETVNTEKLAYRIHDRSTLRVSDIISTLEELKNEVAQCLLEGKKVHVDGLGFFQVTLSCEEEIRNPKDKRVHRVKLKAIKFKADKELKGELCHMKFQRSKIRPHSANLSEVEIDMKLTEYFAENQIITRKDFQYLCGMTQITAYRHIKRLMAEKKLQNKGTIYQPIYTPVPGNYRVSVDLKYKEQ | not soluble |
| MPVPDLFAEGLARGWKTYNGSRLDDDLELEADVVVVGTGAGGGTTAEILSAAGLKVLLVEEGPLKTSSDFKMQEADAYPELYQEGIGRMSKDGAITILQGRAVGGTTLINWTSSFRTPEPTLQHWAQVYGVKGHSAEDMAPWFEKMEQRLHVAPWALPPNANNDVIRLGCEKLGYHWKVIPRNVLGCWNLGYCGMGCPVNAKQSMLVTTIPATLDKGGELLYLARANRLLLDGDKVTGLECLGMDERCVAPNGRRIRVRARHYVLSGGGINTPAILLRSKAPDPSQRVGKRTFLHTVNFSAGLFDRVINPFYGAPQSIYSDHFQWDDGVTGRMSYKLEVPPLQPSLASVLLGGFGSDNALRMEQLPHTNMMLALLRDGFHPDSAEGSVGLRGDDTPVLDYRMTDYTWDGIRRAFHTMAEIQFAAGAREVRPVHSDARSAKNLQEARGIIDGLRLEIYRTRLGSAHVMGGCAMGEDPAVAVADSLGRHHHLRNLSIHDGSLFPTSIGANPQLSVYGLTAQLASALAERLARALEHHHHHH | not soluble |
| MAGQIETRQFRTLFISDVHLGSKAAKTDFLLDFLKYHEAETIIMVGDIVDGWRLRRSWYWPQGCNDVVQKLLRKARKGTRIVYIPGNHDEFLREFPGMHFGGIEVAERMIHEAADGKKYLVIHGDEFDVVVRNARLLAYLGDWAYDAAIAINIAIAAVRRRIGLPYWSFSAWAKLQVKHAVNFIGEFQRVVADEARRNNVDGVICGHIHHAIMEDMDGIRYINTGDWVESCTAIAENADGSFELITWMQTSEATAEHASDEMEPVNIPGLIGKHAA | not soluble |
| MSLSNPLNDLSKKYLTKGLNLASWAEANKITSANPKDWKYNEAIIKLQAEQGLLGIRFPIDLDLYVVDRLNVLNGTKKKIEIEPMLYTLMDSMNIWTKRYGLSLTIDYHAYDGSYNRASSKDPKFREAVSSLWRVVAQHFVKEKREDLFFELTNEPCLSLPEGEYIDQTDWTLLAQMMIDSIRRVDKTRPIIFGDTKWYSLDELIKNKPLKDPYVIYCFHMYDPFLFTHQGASWANMGTMKNIPFPYSPERWSTEFRDFGIVDGTPAWVKDLAKRYYQEGNKQFIKNRLAKVKNWAYEYNVPLICNEWGALPNTAKIEDLNAYFKTMGEIFEEMDISWQVWFGIMDSDYKLLPGMAEALHLKEGHHHHHH | soluble |
